± gives the standard deviation of the averaged measurements.
Experiment: total protein half-life in vivo (active degradation + dilution); higher = more stable protein
[1] = wild type E. coli NCM3722, growth: P-lim chemostat, doubling time 6 h
[2] = wild type E. coli NCM3722, growth: P-lim chemostat, doubling time 12 h
[3] = wild type E. coli NCM3722, growth: C-lim chemostat, doubling time 3 h
[4] = E. coli NCM3722 delta-clpP delta-lon delta-hslV, growth: N-lim chemostat, doubling time 6 h
[5] = E. coli NCM3722 delta-clpP, growth: N-lim chemostat, doubling time 6 h
[6] = E. coli NCM3722 delta-hslV, growth: N-lim chemostat, doubling time 6 h
[7] = E. coli NCM3722 delta-lon, growth: N-lim chemostat, doubling time 6 h
[8] = E. coli NCM3722 delta-smpB, growth: N-lim chemostat, doubling time 6 h
[9] = wild type E. coli NCM3722, growth: C-lim chemostat, doubling time 6 h
[10] = wild type E. coli NCM3722, growth: C-lim chemostat, doubling time 12 h
[11] = wild type E. coli NCM3722, growth: N-lim chemostat, doubling time 6 h
[12] = wild type E. coli NCM3722, growth: N-lim chemostat, doubling time 12 h

| Sequence | total protein half-life in vivo [1] | total protein half-life in vivo [2] | total protein half-life in vivo [3] | total protein half-life in vivo [4] | total protein half-life in vivo [5] | total protein half-life in vivo [6] | total protein half-life in vivo [7] | total protein half-life in vivo [8] | total protein half-life in vivo [9] | total protein half-life in vivo [10] | total protein half-life in vivo [11] | total protein half-life in vivo [12] |
| --- | --- | --- | --- | --- | --- | --- | --- | --- | --- | --- | --- | --- |
| MAASTFFIPSVNVIGADSLTDAMNMMADYGFTRTLIVTDNMLTKLGMAGDVQKALEERNIFSVIYDGTQPNPTTENVAAGLKLLKENNCDSVISLGGGSPHDCAKGIALVAANGGDIRDYEGVDRSAKPQLPMIAINTTAGTASEMTRFCIITDEARHIKMAIVDKHVTPLLSVNDSSLMIGMPKSLTAATGMDALTHAIEAYVSIAATPITDACALKAVTMIAENLPLAVEDGSNAKAREAMAYAQFLAGMAFNNASLGYVHAMAHQLGGFYNLPHGVCNAVLLPHVQVFNSKVAAARLRDCAAAMGVNVTGKNDAEGAEACINAIRELAKKVDIPAGLRDLNVKEEDFAVLATNALKDACGFTNPIQATHEEIVAIYRAAM | 4.98 h | 9.25 ± 2.1 h | – | – | – | – | – | – | – | – | – | – |
| MSLSRAAIVDQLKEIVGADRVITDETVLKKNSIDRFRKFPDIHGIYTLPIPAAVVKLGSTEQVSRVLNFMNAHKINGVPRTGASATEGGLETVVENSVVLDGSAMNQIINIDIENMQATAQCGVPLEVLENALREKGYTTGHSPQSKPLAQMGGLVATRSIGQFSTLYGAIEDMVVGLEAVLADGTVTRIKNVPRRAAGPDIRHIIIGNEGALCYITEVTVKIFKFTPENNLFYGYILEDMKTGFNILREIMVEGYRPSIARLYDAEDGTQHFTHFADGKCVLIFMAEGNPRIAKVTGEGIAEIVARYPQCQRVDSKLIETWFNNLNWGPDKVAAERVQILKTGNMGFTTEVSGCWSCIHEIYESVINRIRTEFPHADDITMLGGHSSHSYQNGTNMYFVYDYNVVDCKPEEEIDKYHNPLNKIICEETIRLGGSMVHHHGIGKHRVHWSKLEHGSAWALLEGLKKQFDPNGIMNTGTIYPIEK | – | – | 3.54 h | – | – | – | – | – | – | – | – | – |
| MNNMNVIIADDHPIVLFGIRKSLEQIEWVNVVGEFEDSTALINNLPKLDAHVLITDLSMPGDKYGDGITLIKYIKRHFPSLSIIVLTMNNNPAILSAVLDLDIEGIVLKQGAPTDLPKALAALQKGKKFTPESVSRLLEKISAGGYGDKRLSPKESEVLRLFAEGFLVTEIAKKLNRSIKTISSQKKSAMMKLGVENDIALLNYLSSVTLSPADKD [P0DMC7] | 3.42 ± 0.59 h | 5.56 ± 0.093 h | 2.71 ± 0.096 h | 5.91 ± 1.9 h | 4.22 ± 1.2 h | 2.69 ± 0.2 h | 3.758 ± 0.014 h | 2.9 ± 0.3 h | 4.35 ± 0.097 h | 6.66 ± 1.3 h | 3.01 ± 0.38 h | 4.16 ± 0.46 h |
| MPPRALLLVDLQNDFCAGGALAVPEGDSTVDVANRLIDWCQSRGEAVIASQDWHPANHGSFASQHGVEPYTPGQLDGLPQTFWPDHCVQNSEGAQLHPLLHQKAIAAVFHKGENPLVDSYSAFFDNGRRQKTSLDDWLRDHEIDELIVMGLATDYCVKFTVLDALQLGYKVNVITDGCRGVNIQPQDSAHAFMEMSAAGATLYTLADWEETQG | 4.76 h | 11.1 ± 0.22 h | 3.05 ± 0.12 h | 4.67 ± 0.11 h | 3.93 ± 0.17 h | – | 4.52 ± 1.1 h | 3.78 ± 0.19 h | 6.27 ± 1.3 h | 10.1 ± 0.99 h | 4.16 ± 0.32 h | 6.53 h |
| MSEQLTDQVLVERVQKGDQKAFNLLVVRYQHKVASLVSRYVPSGDVPDVVQEAFIKAYRALDSFRGDSAFYTWLYRIAVNTAKNYLVAQGRRPPSSDVDAIEAENFESGGALKEISNPENLMLSEELRQIVFRTIESLPEDLRMAITLRELDGLSYEEIAAIMDCPVGTVRSRIFRAREAIDNKVQPLIRR [P0AGB6] | 5.63 ± 0.5 h | 12.6 ± 0.15 h | 3.49 ± 0.3 h | 5.283 ± 0.0063 h | 6.37 ± 0.46 h | 6.86 ± 0.17 h | 7.1 ± 0.53 h | 6.14 ± 0.71 h | 5.85 ± 0.13 h | 11.8 ± 1.1 h | 5.76 ± 0.9 h | 11.3 ± 1.4 h |
| MSNTDASGEKRVTGTSERREQIIQRLRQQGSVQVNDLSALYGVSTVTIRNDLAFLEKQGIAVRAYGGALICDSTTPSVEPSVEDKSALNTAMKRSVAKAAVELIQPGHRVILDSGTTTFEIARLMRKHTDVIAMTNGMNVANALLEAEGVELLMTGGHLRRQSQSFYGDQAEQSLQNYHFDMLFLGVDAIDLERGVSTHNEDEARLNRRMCEVAERIIVVTDSSKFNRSSLHKIIDTQRIDMIIVDEGIPADSLEGLRKAGVEVILVGE [P0ACK2] | 5.05 ± 0.16 h | 9.52 ± 1.1 h | 3.02 ± 0.15 h | – | 6.24 ± 1 h | 4.83 ± 0.21 h | 5.24 ± 0.27 h | 5.04 ± 0.56 h | 5.31 ± 0.35 h | 9.94 ± 0.52 h | 4.89 ± 0.46 h | 9.31 ± 0.91 h |
| MKILVDENMPYARDLFSRLGEVTAVPGRPIPVAQLADADALMVRSVTKVNESLLAGKPIKFVGTATAGTDHVDEAWLKQAGIGFSAAPGCNAIAVVEYVFSSLLMLAERDGFSLYDRTVGIVGVGNVGRRLQARLEALGIKTLLCDPPRADRGDEGDFRSLDELVQRADILTFHTPLFKDGPYKTLHLADEKLIRSLKPGAILINACRGAVVDNTALLTCLNEGQKLSVVLDVWEGEPELNVELLKKVDIGTSHIAGYTLEGKARGTTQVFEAYSKFIGHEQHVALDTLLPAPEFGRITLHGPLDQPTLKRLVHLVYDVRRDDAPLRKVAGIPGEFDKLRKNYLERREWSSLYVICDDASAASLLCKLGFNAVHHPAR | 5.71 ± 0.38 h | 11.1 ± 0.13 h | 3 ± 0.38 h | 5.83 ± 1.3 h | 5.47 ± 1.3 h | 5.17 ± 0.28 h | 5.42 ± 0.064 h | 4.62 ± 0.18 h | 5.58 ± 0.23 h | 12.6 ± 3.2 h | 4.72 ± 0.047 h | 8.268 ± 0.016 h |

— the supplement of paper PMC11246515
